Patent KR20130126543A (dated 2013)

T1: IL-6R-Fc 항원 (human, UniProt P08887 20-365, limits assumed)
T1 construct: domain: IL-6R full domain; Made in-house as IL-6R-Fc; also called IL-6R full; IL-6R full domain인 단백질; not shown: Fc part (vector pYK 604)
T1 sequence (looked up): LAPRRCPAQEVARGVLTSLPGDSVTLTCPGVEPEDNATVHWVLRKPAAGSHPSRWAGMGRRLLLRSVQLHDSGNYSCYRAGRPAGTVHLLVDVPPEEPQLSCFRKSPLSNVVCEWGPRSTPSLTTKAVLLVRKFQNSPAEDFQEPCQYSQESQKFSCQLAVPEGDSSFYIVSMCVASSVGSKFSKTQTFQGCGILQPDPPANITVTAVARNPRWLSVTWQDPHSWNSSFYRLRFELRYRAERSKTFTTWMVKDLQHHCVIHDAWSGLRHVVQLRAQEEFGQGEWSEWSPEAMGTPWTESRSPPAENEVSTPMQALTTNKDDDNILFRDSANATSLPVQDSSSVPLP

B1: 항 IL-6R 단클론 항체 D2 (antibody, V domains shown)
VH: QVQLVESGAEVKKPGSSVKVSCKGSGDTFPNYAINWVRQAPGQGPEWMGRIIPMLGTSDYAEKFQGRVTITADKSTNTAYMGLNSLRSEDTAVYYCVKGPRYYGTDSYYLEKWGQGTMVTVSS
VL: SQLVLTQPPSVSGAPGQTVTISCTGPTIGAGYDVHWYQQLPGAAPKLLIYGNLNRPSGVPDRFSGSKSGTSASLAITDLQAEDEADYYCHTYDSSLSGSWVFGGGTKLTVL
B2: 모노 파아지 클론 D2 (scFv, V domains shown)
VH: B1 VH
VL: B1 VL
notes: also called D02
B3: 모노 파아지 클론 B10 (scFv, V domains shown)
VH: QVQLVESGGGLVQPGGSLRLSCAASGFIFDDYAMFWVRQVPGKGLEWVAGINWNGNGIGYGDSVRGRFIISRDNARNSLDLQMNSLRAEDTAVYYCARPSLYGGNSEFDLWGQGTLVTVSS
VL: B1 VL
notes: also called 6B10
B4: 항 IL-6R 단클론 항체 B10 (antibody, V domains shown)
VH: B3 VH
VL: B1 VL
B5: B10/TNFR2 (bispecific antibody)
heavy: not shown
light: DVHSQLVLTQPPSVSGAPGQTVTISCTGPTIGAGYDVHWYQQLPGAAPKLLIYGNLNRPSGVPDRFSGSKSGTSASLAITDLQAEDEADYYCHTYDSSLSGSWVFGGGTKLTVL
notes: also called Anti-IL-6R/TNFR2
B6: 항 IL-6R 단클론 항체 A7 (antibody, V domains shown)
VH: QMQLVESGGGLVQPGTSLRLSCAASGFKFEDYAMHWVRQAPGKGLEWVSGVSWNSGTIAYVDSVKGRFTISRDNAKNSLYLQMNSLRAEDTAVYYCARDFTYFYESSGYYAFDLWGQGTMVTVSS
VL: SQLVLTQPPSVSGAPGQRVTISCTGTNSNIGAGYDVHWYQQVPGTTPKLLIYGNTNRPSGVPDRFSGSKSGTSASLAITGLQAEDGGDYYCQSFDSSLTGSVFGTGTKVTVL
B7: 모노 파아지 클론 A7 (scFv, V domains shown)
VH: B6 VH
VL: B6 VL
notes: also called A07
B8: 항 IL-6R 단클론 항체 F2 (antibody, V domains shown)
VH: QVQLVESGAEVKKPGASVKVSCKASGYTFTNYYMHWVRQAPGQGLEWMGIINPSGGNTGYAQKFQGRVTMTRDMSTSTAYMELSSLRSEDTAVYYCARGLPWGENGLDVWGQGTTVTVSS
VL: SQLVLTQPSSVSGAPGQTVTISCTGSSSNIGAGYDVHWYQQLPGTAPKVLIYGDSDRPSGVPDRFSGSKSATSASLAITGLQAEDEADYYCQSYDSSLSAYVFGTGTKVTVL
B9: 모노 파아지 클론 F2 (scFv, V domains shown)
VH: B8 VH
VL: B8 VL
notes: also called F02
B10: A7/TNFR2 (bispecific antibody)
heavy: not shown
light: DVHSQLVLTQPPSVSGAPGQRVTISCTGTNSNIGAGYDVHWYQQVPGTTPKLLIYGNTNRPSGVPDRFSGSKSGTSASLAITGLQAEDGGDYYCQSFDSSLTGSVFGTGTKVTVL
notes: also called Anti-IL-6R/TNFR2; Dual

Assays:
[1] = biological target: T1, IL-6R-Fc 항원; test: ELISA titration on coated IL-6R; fit R2 0.8
[2] = biological target: T1, IL-6R-Fc 항원; test: ELISA titration on coated IL-6R (repeats the 3rd table)
[3] = biological target: T1, IL-6R-Fc 항원; test: ELISA; IL-6R coated 100 ng/well; IgG at 25 nM; anti-Fab-HRP
[4] = biological target: T1, IL-6R-Fc 항원; test: ELISA; IL-6R coated 100 ng/well; IgG at 50 nM; anti-Fab-HRP
[5] = biological target: T1, IL-6R-Fc 항원; test: ELISA; IL-6R coated 100 ng/well; IgG at 12.5 nM; anti-Fab-HRP
[6] = biological target: T1, IL-6R-Fc 항원; test: ELISA; IL-6R coated 100 ng/well; IgG at 6.25 nM; anti-Fab-HRP
[7] = biological target: T1, IL-6R-Fc 항원; test: ELISA; IL-6R coated 100 ng/well; IgG at 3.125 nM; anti-Fab-HRP
[8] = biological target: T1, IL-6R-Fc 항원; test: ELISA; IL-6R coated 100 ng/well; IgG at 1.5625 nM; anti-Fab-HRP
[9] = biological target: T1, IL-6R-Fc 항원; test: ELISA; IL-6R coated 100 ng/well; IgG at 0.02441 nM; anti-Fab-HRP
[10] = biological target: T1, IL-6R-Fc 항원; test: ELISA; IL-6R coated 100 ng/well; IgG at 0.04883 nM; anti-Fab-HRP
[11] = biological target: T1, IL-6R-Fc 항원; test: ELISA; IL-6R coated 100 ng/well; IgG at 0.09766 nM; anti-Fab-HRP
[12] = biological target: T1, IL-6R-Fc 항원; test: ELISA; IL-6R coated 100 ng/well; IgG at 0.19531 nM; anti-Fab-HRP
[13] = biological target: T1, IL-6R-Fc 항원; test: ELISA; IL-6R coated 100 ng/well; IgG at 0.39063 nM; anti-Fab-HRP
[14] = biological target: T1, IL-6R-Fc 항원; test: ELISA; IL-6R coated 100 ng/well; IgG at 0.78125 nM; anti-Fab-HRP
[15] = biological target: T2, a-Myc; test: mono phage ELISA; a-Myc coated 100 ng/well; anti-M13-HRP
T2 construct: Coated at 100 ng/well in the phage ELISAs

[16] = biological target: T1, IL-6R-Fc 항원; test: ELISA titration on coated IL-6R; fit R2 0.75
[17] = biological target: T1, IL-6R-Fc 항원; test: assay on IL-6R not described for the bispecific protein
[18] = biological target: T3, TNF-α (UniProt P01375 77-233); test: ELISA; TNF-α coated 100 ng/well; protein from 100 nM in 1/4 steps; anti-Human Fc-HRP
T3 construct: Coated at 100 ng/well; also called TNF-a; TNF-α 리간드

[19] = biological target: T1, IL-6R-Fc 항원; test: ELISA titration on coated IL-6R; fit R2 0.93
[20] = biological target: T1, IL-6R-Fc 항원; test: ELISA titration on coated IL-6R; fit R2 0.98

T3 sequence (P01375 77-233 limits assumed): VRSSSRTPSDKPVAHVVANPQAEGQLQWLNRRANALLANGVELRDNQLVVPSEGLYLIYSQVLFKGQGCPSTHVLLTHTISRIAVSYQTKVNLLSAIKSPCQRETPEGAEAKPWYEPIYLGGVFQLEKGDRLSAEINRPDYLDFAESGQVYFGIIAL

| Binder | Kd [2] [nM] | OD 490 nm [3] [OD490] | OD 490 nm [4] [OD490] | OD 490 nm [5] [OD490] | OD 490 nm [6] [OD490] | OD 490 nm [7] [OD490] | OD 490 nm [8] [OD490] | OD 490 nm [9] [OD490] | OD 490 nm [10] [OD490] | OD 490 nm [11] [OD490] | OD 490 nm [12] [OD490] | OD 490 nm [13] [OD490] | OD 490 nm [14] [OD490] | OD 490 nm (a-myc) [15] [OD490] | further results |
| --- | --- | --- | --- | --- | --- | --- | --- | --- | --- | --- | --- | --- | --- | --- | --- |
| B1 | 7.5 | 1.94 | 2.38 | 1.47 | 0.981 | 0.719 | 0.584 | 0.449 | 0.451 | 0.45 | 0.469 | 0.473 | 0.479 |  | Kd [1]: 7.5 nM |
| B2 |  |  |  |  |  |  |  |  |  |  |  |  |  | 0.303 |  |
| B3 |  |  |  |  |  |  |  |  |  |  |  |  |  | 0.113 |  |
| B4 | 4.3 | 1.78 | 2.09 | 1.39 | 1.04 | 0.761 | 0.607 | 0.468 | 0.451 | 0.462 | 0.429 | 0.476 | 0.5 |  | Kd [16]: 4.3 nM |
| B5 |  |  |  |  |  |  |  |  |  |  |  |  |  |  | Kd [17]: 4.3 nM; Kd [18]: 0.72 nM |
| B6 | 2.3 | 2.84 | 3.1 | 2.58 | 2.13 | 1.64 | 1.17 | 0.514 | 0.498 | 0.497 | 0.546 | 0.618 | 0.782 |  | Kd [19]: 2.3 nM |
| B7 |  |  |  |  |  |  |  |  |  |  |  |  |  | 0.0797 |  |
| B8 | 0.35 | 2.89 | 2.99 | 2.92 | 2.71 | 2.72 | 2.43 | 0.535 | 0.584 | 0.743 | 1.01 | 1.41 | 1.9 |  | Kd [20]: 0.35 nM |
| B9 |  |  |  |  |  |  |  |  |  |  |  |  |  | 0.287 |  |
| B10 |  |  |  |  |  |  |  |  |  |  |  |  |  |  | Kd [17]: 2.3 nM |
